Reference: patent publication US20240002501A1 (Memorial Sloan Kettering, published 2024)
Where two headings read alike, the source gives them in different places.

Columns and labels:
[1] = target: T1, L1-CAM on L1-CAM(+) human tumor cells (human, UniProt P32004 20-1257); assay: cell-based or functional assay
L1-CAM-Fc [2] = target: T2, L1-CAM-Fc (UniProt P32004 20-1120, limits assumed); assay: SPR (Biacore T100), L1-CAM-Fc immobilised on CM5 chip
T2 construct: also called antigen L1-CAM-Fc; not shown: Fc part
T2 sequence (P32004 20-1120 limits assumed): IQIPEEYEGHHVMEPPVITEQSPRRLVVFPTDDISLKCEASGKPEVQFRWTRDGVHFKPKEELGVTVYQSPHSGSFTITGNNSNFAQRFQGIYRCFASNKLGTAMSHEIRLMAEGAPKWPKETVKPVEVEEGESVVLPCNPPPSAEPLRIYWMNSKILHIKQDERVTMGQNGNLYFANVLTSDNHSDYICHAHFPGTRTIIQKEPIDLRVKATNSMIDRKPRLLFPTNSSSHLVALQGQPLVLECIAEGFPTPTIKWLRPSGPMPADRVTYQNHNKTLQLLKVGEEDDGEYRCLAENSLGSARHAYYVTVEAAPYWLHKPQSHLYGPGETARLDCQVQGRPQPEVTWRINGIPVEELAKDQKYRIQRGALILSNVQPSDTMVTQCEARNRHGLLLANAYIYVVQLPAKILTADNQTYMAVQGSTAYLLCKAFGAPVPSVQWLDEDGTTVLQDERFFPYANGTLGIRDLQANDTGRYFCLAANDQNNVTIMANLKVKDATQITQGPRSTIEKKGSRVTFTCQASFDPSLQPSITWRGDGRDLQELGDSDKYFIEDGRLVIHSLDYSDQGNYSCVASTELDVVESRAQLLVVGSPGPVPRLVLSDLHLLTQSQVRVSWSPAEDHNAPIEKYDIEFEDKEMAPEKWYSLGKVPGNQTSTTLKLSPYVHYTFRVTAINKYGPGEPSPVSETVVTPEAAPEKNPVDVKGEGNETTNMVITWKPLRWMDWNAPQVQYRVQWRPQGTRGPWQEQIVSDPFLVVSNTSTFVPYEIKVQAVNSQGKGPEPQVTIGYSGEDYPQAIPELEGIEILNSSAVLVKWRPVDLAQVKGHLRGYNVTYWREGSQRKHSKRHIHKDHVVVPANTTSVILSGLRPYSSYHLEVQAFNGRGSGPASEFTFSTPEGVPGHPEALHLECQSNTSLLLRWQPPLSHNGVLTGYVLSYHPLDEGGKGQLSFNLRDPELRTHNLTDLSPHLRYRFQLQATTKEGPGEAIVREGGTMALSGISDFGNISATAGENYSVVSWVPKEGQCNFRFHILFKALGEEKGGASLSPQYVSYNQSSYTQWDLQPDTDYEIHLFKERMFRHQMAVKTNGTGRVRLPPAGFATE
Procedure: (§1) In Vitro Binding Kinetics by Biacore T-100 Biosensor (GE Healthcare, Uppsala, Sweden). CM5 sensor chip (Research grade) and related reagents were purchased from Biacore USA (Piscataway, NJ). Antigen L1-CAM-Fc or L1-CAM-His was directly immobilized onto the CM5 sensor chip according to the manufacturer's instructions. Purified monoclonal antibodies (MoAbs) (mouse, chimeric IgG1 and IgG4, and humanized IgG1 and IgG4 versions of E71 and E72, and their IgG1n glycoforms) were diluted in HBS-EP buffer at varying concentrations (41.7˜666.7 nM) prior to analysis. Samples were injected over the sensor surface at a flow rate of 30 μl/min over 1 min. Association time was set for 1 min, dissociation time was set for from 5 min to 15 min. At the end of each cycle, the surface was regenerated using 50 mM NaOH at a flow rate of 50 μl/min over 1 min. The data were analyzed by the bivalent analyte model and default parameter setting for the rate constants using the Biacore T-100 evaluation software, and the apparent association on rate constant (kₒₙ), dissociation off rate constant (koff) and equilibrium dissociation constant (Kd=koff/kₒₙ) were calculated.
The binding of huE71-BsAb and huE72-BsAb to both target cells and effector cells was tested by FACS immunostaining. huE71-BsAb was equally efficient as parental huE71 in binding to L1-CAM(+) neuroblastoma BE(2)C, whereas the binding of huE72-BsAb to BE(2)C was half of that observed with huE71-BsAb (FIG. 38(A)). For binding to CD3(+) T cells, both huE71-BsAb and huE72-BsAb were less efficient compared to huOKT3 IgG1; around 20 fold weaker than huOKT3 (FIG. 38(B)). The reduced avidity of the light chain-anchored scFv of the BsAbs for T cells was attributable in part to the spatial constraints of this format, but is advantageous for minimizing cytokine release especially when target cells were not present.

[3] = target: T1, L1-CAM on L1-CAM(+) human tumor cells; assay: cell-based or functional assay; remark: listed apart in the source
CD3 on CD3(+) T cells = target: T3, CD3 on CD3(+) T cells (UniProt P07766 23-207); assay: FACS immunostaining of CD3(+) T cells
T3 construct: whole, on cells; CD3 is a complex of several chains
T3 sequence (P07766 23-207): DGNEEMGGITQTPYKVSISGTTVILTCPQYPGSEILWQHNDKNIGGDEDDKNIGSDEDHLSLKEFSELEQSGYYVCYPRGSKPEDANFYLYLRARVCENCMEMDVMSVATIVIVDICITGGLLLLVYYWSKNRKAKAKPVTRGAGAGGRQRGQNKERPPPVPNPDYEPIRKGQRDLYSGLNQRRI

L1-CAM-Fc [4] = target: T2, L1-CAM-Fc; assay: SPR (Biacore T100), L1-CAM-Fc immobilised on CM5 chip; remark: listed apart in the source
Procedure: as §1

L1-CAM-His = target: T4, L1-CAM-His; assay: SPR (Biacore T100), L1-CAM-His immobilised on CM5 chip
T4 construct: recombinant soluble His-tagged antigen immobilised on the CM5 chip; also called antigen L1-CAM-His
T4 sequence (P32004 20-1120): as the sequence (P32004 20-1120 limits assumed) above
Procedure: as §1

T1 sequence (P32004 20-1257 limits assumed): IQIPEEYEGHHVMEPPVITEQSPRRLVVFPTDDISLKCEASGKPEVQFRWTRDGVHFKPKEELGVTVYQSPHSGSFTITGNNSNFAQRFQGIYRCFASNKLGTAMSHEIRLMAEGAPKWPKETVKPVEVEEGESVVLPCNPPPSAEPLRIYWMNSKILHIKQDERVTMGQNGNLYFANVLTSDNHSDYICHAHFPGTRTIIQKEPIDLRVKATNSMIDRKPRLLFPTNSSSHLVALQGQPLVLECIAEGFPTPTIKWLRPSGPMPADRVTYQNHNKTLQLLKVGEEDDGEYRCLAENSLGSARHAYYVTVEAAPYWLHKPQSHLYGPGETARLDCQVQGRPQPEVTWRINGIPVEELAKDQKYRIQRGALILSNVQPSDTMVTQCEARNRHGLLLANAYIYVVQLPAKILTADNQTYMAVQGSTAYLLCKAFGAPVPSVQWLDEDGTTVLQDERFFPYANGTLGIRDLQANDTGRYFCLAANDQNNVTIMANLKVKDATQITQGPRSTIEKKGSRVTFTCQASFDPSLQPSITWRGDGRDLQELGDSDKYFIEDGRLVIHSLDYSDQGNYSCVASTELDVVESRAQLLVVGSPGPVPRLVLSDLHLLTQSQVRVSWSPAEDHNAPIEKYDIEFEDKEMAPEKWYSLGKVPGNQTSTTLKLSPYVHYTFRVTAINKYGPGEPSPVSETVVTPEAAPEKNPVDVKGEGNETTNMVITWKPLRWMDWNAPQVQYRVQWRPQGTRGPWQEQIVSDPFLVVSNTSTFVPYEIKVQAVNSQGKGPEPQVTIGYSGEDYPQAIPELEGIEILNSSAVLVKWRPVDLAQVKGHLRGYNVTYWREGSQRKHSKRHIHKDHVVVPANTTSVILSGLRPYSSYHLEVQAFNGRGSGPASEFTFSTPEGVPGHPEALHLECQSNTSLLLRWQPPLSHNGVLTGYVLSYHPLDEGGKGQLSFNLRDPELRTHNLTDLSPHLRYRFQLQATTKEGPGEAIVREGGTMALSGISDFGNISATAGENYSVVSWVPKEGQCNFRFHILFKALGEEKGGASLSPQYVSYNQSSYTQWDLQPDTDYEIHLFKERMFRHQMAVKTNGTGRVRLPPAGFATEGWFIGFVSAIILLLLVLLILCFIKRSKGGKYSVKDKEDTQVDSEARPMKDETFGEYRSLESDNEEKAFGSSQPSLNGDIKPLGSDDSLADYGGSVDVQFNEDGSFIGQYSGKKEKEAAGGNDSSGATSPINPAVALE

Kd (L1-CAM-Fc [2])	koff (L1-CAM-Fc [2])	kon (L1-CAM-Fc [2])	Kd (L1-CAM-Fc [4])	Kd (L1-CAM-His)	Binder	also measured
5.28 nM	0.000189 s⁻¹	35800 M⁻¹ s⁻¹			huE72-BsAb (huE72-huOKT3) (bispecific antibody, human IgG1, kappa, N297A, IgG-scFv format with huOKT3 scFv on the light chain; also called humanized E72-BsAb) heavy: not shown light: DIQMTQSPSSLSVSVGDRVTITCKANEDINNRLAWYQQKPGKAPKLLISGATNLVTGVPSRFSGSGSGTDYTLTISSLQPEDFATYYCQQYWSTPFTFGQGTELEIKRTVAAPSVFIFPPSDEQLKSGTASVVCLLNNFYPREAKVQWKVDNALQSGNSQESVTEQDSKDSTYSLSSTLTLSKADYEKHKVYACEVTHQGLSSPVTKSFNRGECTSGGGGSGGGGSGGGGSQVQLVQSGGGVVQPGRSLRLSCKASGYTFTRYTMHWVRQAPGKCLEWIGYINPSRGYTNYNQKFKDRFTISRDNSKNTAFLQMDSLRPEDTGVYFCARYYDDHYSLDYWGQGTPVTVSSGGGGSGGGGSGGGGSGGGGSGGGGSGGGGSDIQMTQSPSSLSASVGDRVTITCSASSSVSYMNWYQQTPGKAPKRWIYDTSKLASGVPSRFSGSGSGTDYTFTISSLQPEDIATYYCQQWSSNPFTFGCGTKLQITR	T cell cytotoxicity EC50, 4-hour 51Cr release assay, activated T cells (E:T ratio=10:1), IMR32-luciferase cell line [1]: 0.05 nM; EC50 of T cell cytotoxicity (4 h 51Cr release, E:T 10:1) on BE(1)N neuroblastoma cells (L1CAM MFI 614) [3]: 0.014 nM; EC50 of T cell cytotoxicity (4 h 51Cr release, E:T 10:1) on BE(2)C neuroblastoma cells (L1CAM MFI 608) [3]: 0.05 nM; EC50 of T cell cytotoxicity (4 h 51Cr release, E:T 10:1) on BE(2)S neuroblastoma cells (L1CAM MFI 166) [3]: 0.251 nM; EC50 of T cell cytotoxicity (4 h 51Cr release, E:T 10:1) on HTB24 breast CA cells (L1CAM MFI 431) [3]: 0.027 nM; EC50 of T cell cytotoxicity (4 h 51Cr release, E:T 10:1) on HTB26 breast CA cells (L1CAM MFI 33) [3]: 0.056 nM; EC50 of T cell cytotoxicity (4 h 51Cr release, E:T 10:1) on IMR32 LUC neuroblastoma cells (L1CAM MFI 285) [3]: 0.05 nM; EC50 of T cell cytotoxicity (4 h 51Cr release, E:T 10:1) on MCF7 breast CA cells (L1CAM MFI 54) [3]: 0.1 nM; EC50 of T cell cytotoxicity (4 h 51Cr release, E:T 10:1) on NB1691 neuroblastoma cells (L1CAM MFI 742) [3]: 0.031 nM; EC50 of T cell cytotoxicity (4 h 51Cr release, E:T 10:1) on NMB7 neuroblastoma cells (L1CAM MFI 224) [3]: 0.046 nM; EC50 of T cell cytotoxicity (4 h 51Cr release, E:T 10:1) on SKMEL5 melanoma cells (L1CAM MFI 269) [3]: 0.027 nM; EC50 of T cell cytotoxicity (4 h 51Cr release, E:T 10:1) on SKMEL28 melanoma cells (L1CAM MFI 184) [3]: 0.14 nM; EC50 of T cell cytotoxicity (4 h 51Cr release, E:T 10:1) on SKNMM LUC neuroblastoma cells (L1CAM MFI 598) [3]: 0.071 nM; EC50 of T cell cytotoxicity (4 h 51Cr release, E:T 10:1) on SKNSH neuroblastoma cells (L1CAM MFI 23) [3]: 0.158 nM; fold weaker binding than huOKT3 IgG1 (CD3 on CD3(+) T cells): ~20 fold
2.23 nM	0.000199 s⁻¹	89300 M⁻¹ s⁻¹	0.314 nM		E71 (antibody, V domains shown, parental murine anti-L1-CAM antibody; also called mouse E71; murine E71; copies: 2 + 2) VH: QVQLQQPGDELVKPGASVKLSCKASGYTFTSYWMQWVKQRPGQGLEWIGEINPSNGRTNYNEMFKSKATLTVDKSSSTAYMQLSSLTSEDSAVYYCALYDGYYAMDYWGQGTSVTVSS VL: DIVMSQSPSSLAVSVGEKVTMSCKSSQSLLYSSNQKNYLAWYQQKPGQSPKLLIYWASTRESGVPDRFTGSGSGTDFTLTISSVKAEDLALYYCQQYHSYPFTFGSGTKLEIK	
			4.26 nM		huE71-H2L1 (antibody, human IgG1, kappa, V domains shown) VH: QVQLVQSGSELKKPGASVKLSCKASGYTFTSYWMQWVRQAPGQGLEWIGEINPSNGRTNYNEMFKSRAVLSVDTSVSTAYMQLCSLKAEDTAVYYCALYDGYYAMDYWGQGTLVTVSS VL: DIVMTQSPSSLAVSVGERVTMSCKSSQSLLYSSNQKNYLAWYQQKPGQSPKLLIYWASTRESGVPDRFSGSGSGTDFTLTISSVKAEDVALYYCQQYHSYPFTFGQGTKLEIKR	

Continued, binder first:

Binder	Kd (L1-CAM-Fc [2])	koff (L1-CAM-Fc [2])	kon (L1-CAM-Fc [2])	Kd (L1-CAM-Fc [4])	Kd (L1-CAM-His)	also measured
huE72-IgG1 (huE72 H1/L2) (antibody, V domains shown, Human IgG1; also called humanized E72 IgG1) VH: QVQLVQPGAEVVKPGASVKLSCKASGYTFTGYWMHWVKQAPGQGLEWIGEINPSNGRTNYNERFKSKATLTVDKSITTAFMELSRLRSDDTAVYFCARDYYGTSYNFDYWGQGTLLTVSS VL: DIQMTQSPSSLSVSVGDRVTITCKANEDINNRLAWYQQKPGKAPKLLISGATNLVTGVPSRFSGSGSGTDYTLTISSLQPEDFATYYCQQYWSTPFTFGQGTELEIKR	1.88 nM	0.000139 s⁻¹	74000 M⁻¹ s⁻¹	0.252 nM	0.27 nM	
E72-H1L1 (antibody, human IgG1, kappa, V domains shown, also called huE72 H1/L1) VH: QVQLVQPGAEVVKPGASVKLSCKASGYTFTGYWMHWVKQAPGQGLEWIGEINPSNGRTNYNERFKSKATLTVDKSITTAFMELSRLRSDDTAVYFCARDYYGTSYNFDYWGQGTLLTVSS VL: DIQMTQSSSSFSVSVGDRVTITCKANEDINNRLAWYQQKPGKSPRLLISGATNLVTGVPSRFSGSGSGTDYTLTISSLQAEDFATYYCQQYWSTPFTFGQGTELEIKR				0.0893 nM	0.114 nM	
E72-H2L1 (antibody, human IgG1, kappa, V domains shown, also called huE72 H2/L1) VH: QVQLVQPGAEVKKPGASVKLSCKASGYTFTGYWMHWVRQAPGQGLEWIGEINPSNGRTNYNERFKSRATLTVDKSISTAYMELSRLRSDDTAVYFCARDYYGTSYNFDYWGQGTLLTVSS VL: DIQMTQSSSSFSVSVGDRVTITCKANEDINNRLAWYQQKPGKSPRLLISGATNLVTGVPSRFSGSGSGTDYTLTISSLQAEDFATYYCQQYWSTPFTFGQGTELEIKR				0.353 nM	0.355 nM	
E72-H2L2 (antibody, human IgG1, kappa, V domains shown, also called huE72 H2/L2) VH: QVQLVQPGAEVKKPGASVKLSCKASGYTFTGYWMHWVRQAPGQGLEWIGEINPSNGRTNYNERFKSRATLTVDKSISTAYMELSRLRSDDTAVYFCARDYYGTSYNFDYWGQGTLLTVSS VL: DIQMTQSPSSLSVSVGDRVTITCKANEDINNRLAWYQQKPGKAPKLLISGATNLVTGVPSRFSGSGSGTDYTLTISSLQPEDFATYYCQQYWSTPFTFGQGTELEIKR				0.536 nM	0.667 nM	
huE71-H1L2 (antibody, human IgG1, kappa, V domains shown) VH: QVQLVQPGDELVKPGASVKLSCKASGYTFTSYWMQWVKQRPGQGLEWIGEINPSNGRTNYNEMFKSKAVLSVDKSVSTAYMQLSSLTAEDTAVYYCALYDGYYAMDYWGQGTLVTVSS VL: DIVMTQSPDSLAVSLGERVTMNCKSSQSLLYSSNQKNYLAWYQQKPGQPPKLLIYWASTRESGVPDRFSGSGSGTDFTLTISSLQAEDVALYYCQQYHSYPFTFGQGTKLEIKR				0.517 nM		
huE71-H2L2 (antibody, human IgG1, kappa, V domains shown) VH: QVQLVQSGSELKKPGASVKLSCKASGYTFTSYWMQWVRQAPGQGLEWIGEINPSNGRTNYNEMFKSRAVLSVDTSVSTAYMQLCSLKAEDTAVYYCALYDGYYAMDYWGQGTLVTVSS VL: DIVMTQSPDSLAVSLGERVTMNCKSSQSLLYSSNQKNYLAWYQQKPGQPPKLLIYWASTRESGVPDRFSGSGSGTDFTLTISSLQAEDVALYYCQQYHSYPFTFGQGTKLEIKR				2.72 nM		
